Test [1] addresses T1, β-catenin (UniProt P35222 134-665, limits assumed, biotinylated in the SPR and plate assays).
T1 construct: also called beta catenin; biotinylated β-catenin
T1 sequence (looked up): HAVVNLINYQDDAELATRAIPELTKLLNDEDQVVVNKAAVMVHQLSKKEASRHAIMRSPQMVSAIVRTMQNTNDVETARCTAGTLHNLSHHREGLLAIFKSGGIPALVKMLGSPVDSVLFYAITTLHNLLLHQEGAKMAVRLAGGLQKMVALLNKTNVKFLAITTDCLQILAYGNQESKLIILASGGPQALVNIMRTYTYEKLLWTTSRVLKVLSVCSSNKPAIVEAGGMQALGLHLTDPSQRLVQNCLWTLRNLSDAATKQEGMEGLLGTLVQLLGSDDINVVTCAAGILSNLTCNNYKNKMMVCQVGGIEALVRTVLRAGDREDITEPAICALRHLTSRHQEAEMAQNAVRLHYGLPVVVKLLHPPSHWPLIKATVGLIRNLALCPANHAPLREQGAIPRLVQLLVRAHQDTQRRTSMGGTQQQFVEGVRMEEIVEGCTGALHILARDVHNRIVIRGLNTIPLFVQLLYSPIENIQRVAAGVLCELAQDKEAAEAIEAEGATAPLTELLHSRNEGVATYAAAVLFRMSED
Put plainly: competitive FP. An outline of the steps:
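Competitive fluorescence polarization with inhibitor peptide serially diluted from 10 nM to 30 uM; polarization read at 470 nm excitation, 520 nm emission. Experiments performed three times.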

Test [2] has as its target T1, β-catenin. Put plainly: cell-based or functional assay.

The values that follow come from patent US20260098059A1 (ENDOMET BIOSCIENCES, published 2026).

Several values for one entry are separate records, joined by “and”; a condition that tells them apart may be missing. Equal entries are not always repeated. Bridges are numbered along the chain shown (N, C = ends). Where no end group is shown, it is not given here. [ ]: non-standard residue; d: D form. The star is where a group is joined. NMeW = CN[C@@H](Cc1c[nH]c2ccccc12)C(=O)O; Stearoyl = CCCCCCCCCCCCCCCCCC(=O)*; αMeF = C[C@](N)(Cc1ccccc1)C(=O)O; Chg = N[C@H](C(=O)O)C1CCCCC1; αMeV = CC(C)[C@](C)(N)C(=O)O; αMeS = C[C@](N)(CO)C(=O)O; NMeA = CN[C@@H](C)C(=O)O

B1: SEQ ID NO: 464 (peptide)
peptide: Ac-W[NMeA]QKILDEH[Chg]EDVWK-NH2
modifications: lactam 11-15, 4-8 (inferred)
On to B1, for which the dissociation constant Kd in test [1] was > 400 nM and ≤ 1000 nM.

B2: SEQ ID NO: 42 (peptide)
peptide: H-MWFLICFWG-OH
For the molecule B2, in test [1], the Kd was no more than 400 nM. The “Wnt Reporter EC50” value in test [2] was no more than 7.5 µM.

B3: SEQ ID NO: 126 (peptide)
peptide: H-HWILISFWG-OH
For the molecule B3, in test [1], the dissociation constant (Kd) is no more than 400 nM. The “Wnt Reporter EC50” value in test [2] was no more than 7.5 µM.

B4: SEQ ID NO: 125 (peptide)
peptide: H-KWILISFWG-OH
On to B4, for which the Kd in test [1] is > 400 nM and ≤ 1000 nM. Besides, the “Wnt Reporter EC50” value in test [2] is > 22.5 µM and ≤ 30 µM.

B5: SEQ ID NO: 127 (peptide)
peptide: H-WWILISFWG-OH
Turning to B5, in test [1], the Kd was > 400 nM and ≤ 1000 nM. For the same molecule, in test [2], the “Wnt Reporter EC50” value was > 7.5 µM and ≤ 15 µM.

B6: SEQ ID NO: 43 (peptide)
peptide: H-MWILISFWG-OH
Regarding B6, in test [1], the Kd was > 400 nM and ≤ 1000 nM. Besides, the “Wnt Reporter EC50” value in test [2] is no more than 7.5 µM.

B7: SEQ ID NO: 116 (peptide)
peptide: H-MWILICFWG-OH
In the case of B7, the equilibrium dissociation constant (Kd) in test [1] was > 400 nM and ≤ 1000 nM. The “Wnt Reporter EC50” value in test [2] was no more than 7.5 µM.

B8: SEQ ID NO: 121 (peptide)
peptide: H-MWILIC[αMeF]WG-OH
The molecule B8 gave a dissociation constant (Kd) in test [1] of no more than 400 nM. Also, the “Wnt Reporter EC50” value in test [2] is no more than 7.5 µM.

B9: SEQ ID NO: 112 (peptide)
peptide: H-MWFLISFW-OH
Take B9: the equilibrium dissociation constant (Kd) in test [1] is > 400 nM and ≤ 1000 nM. In addition, in test [2], the “Wnt Reporter EC50” value was no more than 7.5 µM.

B10: SEQ ID NO: 446 (peptide)
peptide: WAQKILDEHGQRVW
HELM: PEPTIDE1{[ac].W.[meA].Q.K.I.L.D.E.H.[O=C([C@@H](N[*:1])C1CCCCC1)[*:2]].Q.R.V.W.[am]}$PEPTIDE1,PEPTIDE1,5:R3-9:R3$$$V2.0
SMILES: CC[C@H](C)[C@@H]1NC(=O)[C@@H](NC(=O)[C@H](CCC(N)=O)NC(=O)[C@H](C)N(C)C(=O)[C@H](Cc2c[nH]c3ccccc23)NC(C)=O)CCCCNC(=O)CC[C@@H](C(=O)N[C@@H](Cc2c[nH]cn2)C(=O)N[C@H](C(=O)N[C@@H](CCC(N)=O)C(=O)N[C@@H](CCCNC(=N)N)C(=O)N[C@H](C(=O)N[C@@H](Cc2c[nH]c3ccccc23)C(N)=O)C(C)C)C2CCCCC2)NC(=O)[C@H](CC(=O)O)NC(=O)[C@H](CC(C)C)NC1=O
For the molecule B10, the dissociation constant (Kd) in test [1] was no more than 400 nM.

B11: SEQ ID NO: 102 (peptide)
peptide: WFLISFW
HELM: PEPTIDE1{[meW].F.L.I.S.F.W.[am]}$$$$V2.0
SMILES: CC[C@H](C)[C@H](NC(=O)[C@H](CC(C)C)NC(=O)[C@H](Cc1ccccc1)NC(=O)[C@H](Cc1c[nH]c2ccccc12)NC)C(=O)N[C@@H](CO)C(=O)N[C@@H](Cc1ccccc1)C(=O)N[C@@H](Cc1c[nH]c2ccccc12)C(N)=O
Regarding B11, in test [1], the Kd was no more than 400 nM. The “Wnt Reporter EC50” value in test [2] was > 15 µM and ≤ 22.5 µM.

B12: SEQ ID NO: 36 (peptide)
peptide: WWESILDEHVQRVWG
HELM: PEPTIDE1{W.[meW].E.S.I.L.D.E.H.V.Q.R.V.W.G.[am]}$$$$V2.0
SMILES: CC[C@H](C)[C@H](NC(=O)[C@H](CO)NC(=O)[C@H](CCC(=O)O)NC(=O)[C@H](Cc1c[nH]c2ccccc12)N(C)C(=O)[C@@H](N)Cc1c[nH]c2ccccc12)C(=O)N[C@@H](CC(C)C)C(=O)N[C@@H](CC(=O)O)C(=O)N[C@@H](CCC(=O)O)C(=O)N[C@@H](Cc1c[nH]cn1)C(=O)N[C@H](C(=O)N[C@@H](CCC(N)=O)C(=O)N[C@@H](CCCNC(=N)N)C(=O)N[C@H](C(=O)N[C@@H](Cc1c[nH]c2ccccc12)C(=O)NCC(N)=O)C(C)C)C(C)C
In test [1], B12 had a dissociation constant (Kd) of no more than 400 nM. Further, in test [2], the “Wnt Reporter EC50” value was greater than 30 µM.

B13: SEQ ID NO: 35 (peptide)
peptide: H-MWE[αMeS]ILDEHVQRVWG-NH2
The molecule B13 yielded a dissociation constant Kd in test [1] of no more than 400 nM. In test [2], the “Wnt Reporter EC50” value is greater than 30 µM.

B14: SEQ ID NO: 34 (peptide)
peptide: H-MWESILDEH[αMeV]QRVWG-NH2
In the case of B14, the equilibrium dissociation constant (Kd) in test [1] was no more than 400 nM. The “Wnt Reporter EC50” value in test [2] is greater than 30 µM.

B15: SEQ ID NO: 2 (peptide)
peptide: Stearoyl-GW[NMeW]ESILDEHVQRVWG-OH
Molecule B15 had a dissociation constant Kd in test [1] of no more than 400 nM.

B16: SEQ ID NO: 434 (peptide)
peptide: [NMeA]QKILNEH[Chg]QRVWG-NH2
modifications: lactam 3-7; not fully specified (N-terminus); printed as H23C11C(O)NH-NMeA-QK*ILNE*H-Chg-QRVWG-NH2
In test [1], B16 registered a Kd of no more than 400 nM.

B17: SEQ ID NO: 122 (peptide)
peptide: H-KMWILISFWG-OH
Take B17: the Kd in test [1] was no more than 400 nM. Also, in test [2], the “Wnt Reporter EC50” value was > 22.5 µM and ≤ 30 µM.

B18: SEQ ID NO: 186 (peptide)
peptide: KMWFLICFWE
HELM: PEPTIDE1{[ac].K.M.W.F.L.I.C.F.W.E}$PEPTIDE1,PEPTIDE1,2:R3-11:R3$$$V2.0
SMILES: CC[C@H](C)[C@@H]1NC(=O)[C@H](CC(C)C)NC(=O)[C@H](Cc2ccccc2)NC(=O)[C@H](Cc2c[nH]c3ccccc23)NC(=O)[C@H](CCSC)NC(=O)[C@@H](NC(C)=O)CCCCNC(=O)CC[C@@H](C(=O)O)NC(=O)[C@H](Cc2c[nH]c3ccccc23)NC(=O)[C@H](Cc2ccccc2)NC(=O)[C@H](CS)NC1=O
Consider B18, for which the dissociation constant (Kd) in test [1] was > 400 nM and ≤ 1000 nM. For the same molecule, the “Wnt Reporter EC50” value in test [2] was greater than 30 µM.

B19: SEQ ID NO: 123 (peptide)
peptide: H-HMWILISFWG-OH
Take B19: the Kd in test [1] is no more than 400 nM. The “Wnt Reporter EC50” value in test [2] was no more than 7.5 µM.

B20: SEQ ID NO: 3 (peptide)
peptide: MMVQSLFVPPVK
modifications: not fully specified; cyclo-glutaryl-*MM-NMeNva-QSLF-NMeNva-PP-NMeNva-K*-CONH2
In the case of B20, the Kd in test [1] is > 10000 nM and ≤ 30000 nM.

B21: SEQ ID NO: 108 (peptide)
peptide: MWFLISFWG-NH2
For the molecule B21, the dissociation constant (Kd) in test [1] is > 400 nM and ≤ 1000 nM. Also, in test [2], the “Wnt Reporter EC50” value was > 7.5 µM and ≤ 15 µM.

B22: SEQ ID NO: 450 (peptide)
peptide: WAESILKEHVQRVWG
HELM: PEPTIDE1{[ac].W.[meA].E.S.I.L.K.E.H.V.Q.R.V.W.G.[am]}$PEPTIDE1,PEPTIDE1,4:R3-8:R3$$$V2.0
SMILES: CC[C@H](C)[C@@H]1NC(=O)[C@H](CO)NC(=O)[C@@H](NC(=O)[C@H](C)N(C)C(=O)[C@H](Cc2c[nH]c3ccccc23)NC(C)=O)CCC(=O)NCCCC[C@@H](C(=O)N[C@@H](CCC(=O)O)C(=O)N[C@@H](Cc2c[nH]cn2)C(=O)N[C@H](C(=O)N[C@@H](CCC(N)=O)C(=O)N[C@@H](CCCNC(=N)N)C(=O)N[C@H](C(=O)N[C@@H](Cc2c[nH]c3ccccc23)C(=O)NCC(N)=O)C(C)C)C(C)C)NC(=O)[C@H](CC(C)C)NC1=O
In the case of B22, the equilibrium dissociation constant (Kd) in test [1] is > 400 nM and ≤ 1000 nM.

B23: SEQ ID NO: 458 (peptide)
peptide: Ac-W[NMeA]QKILNDH[Chg]QAVW-NH2
modifications: lactam 4-8
As for B23, the Kd in test [1] is > 400 nM and ≤ 1000 nM.

B24: SEQ ID NO: 96 (peptide)
peptide: H-MWFLISSW-OH
Take B24: the equilibrium dissociation constant (Kd) in test [1] is > 10000 nM and ≤ 30000 nM. Also, the “Wnt Reporter EC50” value in test [2] is > 7.5 µM and ≤ 15 µM.

B25: SEQ ID NO: 197 (peptide)
peptide: MWFLICFW
HELM: PEPTIDE1{[ac].M.W.F.L.I.C.F.W.[O=C(O)CCCN[*:1]]}$$$$V2.0
SMILES: CC[C@H](C)[C@H](NC(=O)[C@H](CC(C)C)NC(=O)[C@H](Cc1ccccc1)NC(=O)[C@H](Cc1c[nH]c2ccccc12)NC(=O)[C@H](CCSC)NC(C)=O)C(=O)N[C@@H](CS)C(=O)N[C@@H](Cc1ccccc1)C(=O)N[C@@H](Cc1c[nH]c2ccccc12)C(=O)NCCCC(=O)O
For B25, the dissociation constant (Kd) in test [1] was > 400 nM and ≤ 1000 nM. Moreover, in test [2], the “Wnt Reporter EC50” value is no more than 7.5 µM.

B26: SEQ ID NO: 455 (peptide)
peptide: WXQKILNDHGQRVW
HELM: PEPTIDE1{[ac].W.[Aib].Q.K.I.L.N.D.H.[O=C([C@@H](N[*:1])C1CCCCC1)[*:2]].Q.R.V.W.[am]}$PEPTIDE1,PEPTIDE1,5:R3-9:R3$$$V2.0
SMILES: CC[C@H](C)[C@@H]1NC(=O)[C@@H](NC(=O)[C@H](CCC(N)=O)NC(=O)C(C)(C)NC(=O)[C@H](Cc2c[nH]c3ccccc23)NC(C)=O)CCCCNC(=O)C[C@@H](C(=O)N[C@@H](Cc2c[nH]cn2)C(=O)N[C@H](C(=O)N[C@@H](CCC(N)=O)C(=O)N[C@@H](CCCNC(=N)N)C(=O)N[C@H](C(=O)N[C@@H](Cc2c[nH]c3ccccc23)C(N)=O)C(C)C)C2CCCCC2)NC(=O)[C@H](CC(N)=O)NC(=O)[C@H](CC(C)C)NC1=O
In turn, B26 gave a dissociation constant (Kd) in test [1] of no more than 400 nM.

B27: SEQ ID NO: 111 (peptide)
peptide: WFLISFW
HELM: PEPTIDE1{[meW].F.L.I.S.F.W}$$$$V2.0
SMILES: CC[C@H](C)[C@H](NC(=O)[C@H](CC(C)C)NC(=O)[C@H](Cc1ccccc1)NC(=O)[C@H](Cc1c[nH]c2ccccc12)NC)C(=O)N[C@@H](CO)C(=O)N[C@@H](Cc1ccccc1)C(=O)N[C@@H](Cc1c[nH]c2ccccc12)C(=O)O
As for B27, in test [1], the equilibrium dissociation constant (Kd) is > 400 nM and ≤ 1000 nM. Besides, the “Wnt Reporter EC50” value in test [2] was > 7.5 µM and ≤ 15 µM.
